Laboratory results taken from patent US20220289865A1 (MINERVA BIOTECHNOLOGIES, published 2022).
Groups on a side chain read outwards from the residue. No end group written: not given here.

Experiments:
[1] = target: T1, recombinant human NME7-AB (human, UniProt Q9Y5B8 92-376); assay: sandwich ELISA, PSMGFR-His bound to NME7 held by plate-bound PSMGFR, anti-Histag-HRP
T1 construct: Expressed in E. coli, lacks the DM10 domain, monomer; also called NME7 monomer
T1 sequence: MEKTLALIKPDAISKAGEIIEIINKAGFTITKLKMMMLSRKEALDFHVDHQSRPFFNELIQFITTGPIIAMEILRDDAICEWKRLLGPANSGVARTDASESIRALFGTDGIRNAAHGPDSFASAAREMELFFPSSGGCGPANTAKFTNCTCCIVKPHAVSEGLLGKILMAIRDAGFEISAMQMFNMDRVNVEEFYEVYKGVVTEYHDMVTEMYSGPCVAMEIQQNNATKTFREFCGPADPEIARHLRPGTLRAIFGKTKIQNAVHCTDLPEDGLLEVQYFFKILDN
Protocol: (§1) The PSMGFR peptide bearing a C-terminal Cysteine (PSMGFR-Cys) was covalently coupled to BSA using Imject Maleimide activated BSA kit (Thermo Fisher). PSMGFR-Cys coupled BSA was diluted to 10 ug/mL in 0.1M carbonate/bicarbonate buffer pH 9.6 and 50 uL was added to each well of a 96 well plate. After overnight incubation at 4° C., the plate was washed twice with PBS-T and a 3% BSA solution was added to block remaining binding site on the well. After 1 h at RT the plate was washed twice with PBS-T and NME7, diluted in PBS-T+1% BSA, was added at different concentrations. After 1 h at RT the plate was washed 3× with PBS-T and anti-NM23-H7 (B-9, Santa Cruz Biotechnology), diluted in PBS-T+1% BSA, was added at 1/500 dilution. […] After 1 h at RT the plate was washed 3× with PBS-T and binding of NME7 was measured at 415 nm using ABTS solution (Pierce). […]
(§2) After 1 h at RT the plate was washed 3× with PBS-T and HisTagged PSMGFR peptide (PSMGFR-His) or biotinylated PSMGFR peptide (PSMGFR-biotin), diluted in PBS-T+1% BSA, was added at different concentration. […] After 1 h at RT the plate was washed 3× with PBS-T and binding of PSMGFR peptide to NME7 already bound to another PSMGFR peptide (which could not signal by anti-His antibody or by streptavidin) coupled BSA was measured at 415 nm using a ABTS solution (Pierce).

[2] = target: T1, recombinant human NME7-AB; assay: sandwich ELISA
Protocol: as §1, §2

[3] = target: T1, recombinant human NME7-AB; assay: sandwich ELISA, PSMGFR-biotin bound to NME7 held by plate-bound PSMGFR, streptavidin-HRP
Protocol: as §1, §2

[4] = target: T1, recombinant human NME7-AB; assay: ELISA, PSMGFR-Cys coupled BSA on the plate, NME7 detected with B-9
Protocol: The PSMGFR peptide bearing a C-terminal Cysteine (PSMGFR-Cys) was covalently coupled to BSA using Imject Maleimide activated BSA kit (Thermo Fisher). PSMGFR-Cys coupled BSA was diluted to 10 ug/mL in 0.1M carbonate/bicarbonate buffer pH 9.6 and 50 uL was added to each well of a 96 well plate. After overnight incubation at 4° C., the plate was washed twice with PBS-T and a 3% BSA solution was added to block remaining binding site on the well. After 1 h at RT the plate was washed twice with PBS-T and NME7, diluted in PBS-T+1% BSA, was added at different concentrations. After 1 h at RT the plate was washed 3× with PBS-T and anti-NM23-H7 (B-9, Santa Cruz Biotechnology), diluted in PBS-T+1% BSA, was added at 1/500 dilution. After 1 h at RT the plate was washed 3× with PBS-T and goat anti mouse-HRP, diluted in PBS-T+1% BSA, was added at 1/3333 dilution. After 1 h at RT the plate was washed 3× with PBS-T and binding of NME7 was measured at 415 nm using ABTS solution (Pierce).

B1: His-tagged PSMGFR peptide (peptide)
peptide: GTINVHDVETQFNQYKTEAASRYNLTISDVSVSDVPFPFSAQSGA
notes: also called PSMGFR-His; not shown: histidine tag
Does B1 bind [1]?
Result: binds

B2: MUC1* extracellular domain peptide (PSMGFR peptide) (peptide)
peptide: B1 peptide
notes: also called synthetic MUC1* peptide; surface immobilized MUC1* peptide
Does B2 bind [2]?
Result: binds

B3: biotinylated PSMGFR peptide (peptide)
peptide: B1 peptide
modifications: also: biotinylated (position not given here)
notes: also called PSMGFR-biotin
Does B3 bind [3]?
Result: binds

B4: PSMGFR peptide bearing a C-terminal Cysteine, coupled to BSA (peptide)
peptide: GTINVHDVETQFNQYKTEAASRYNLTISDVSVSDVPFPFSAQSGAC([maleimide-BSA])
notes: also called PSMGFR-Cys; PSMGFR-Cys coupled BSA
Does B4 bind [4]?
Result: binds
